To fix the notation:
B1: Azoarcus group I ribozyme (parent)
chain: GUGCCUUGCGCCGGGAAACCACGCAAGGGAUGGUGUCAAAUUCGGCGAAACCUAAGCGCCCGCCCGGGCGUAUGGCAACGCCGAGCCAAGCUUCGGCGCCUGCGCCGAUGAAGGUGUAGAGACUAGACGGCACCCACCUAAGGCAAACGCUAUGGUGAAGGCAUAGUCCAGGGAGUGGCGAAAGUCACACAAACCGG

This is an account of results in the RNAGym collection of RNA variant scans (doi:10.1093/molbev/msab373).

The series covers variants of B1. The experiment in a line: reverse-splicing fitness (ratio to wild type); higher = more active; in vitro selection; Mg2+ level not given. A digest of the protocol:
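An in vitro group I ribozyme library with randomized positions was T7-transcribed and gel-purified. In triplicate, 10 pmol RNA in EPPS pH 7.5 was reacted with 50 pmoles of a 30-nt RNA substrate for 1 h at 37 °C across several added MgCl2 levels (1–48 mM), then stopped with EDTA. Products were reverse transcribed from a substrate-complementary primer, PCR-amplified and sequenced (HiSeq 4000). Fitness is a variant's read proportion after selection over that before, normalised to wild type.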
In the case of GUGCCUUGCGCCGGGAAACCACGCAAGGGAUGGUGUCAAAUUCGGCGAAACCUAAGCGCCCGCCCGGGCGUAUGGCAACGCCGAGCCAAGCUUCGGCGCCUGCGCCGAUGCAGGUGUAGUGACUAGACGGCACCCACCUAAGGCAAACGAUAUGGUGAAGGCAUAGUCAAGGGAGAGGCGAAAGUCACACAAACCGG [A111C A120U C150A C169A U176A], the reverse-splicing fitness is 0.00602. The figure for GUGCCUUGCGCCGGGAAACCACGCAAGGGAUGGUGUCAAAUUCGGCGAAACCUAAGCGCCCGCCCGGGCGUAUGGCAACGCAGAGCCAAGCUUCGGCGCCUGCGCCGAUGGAGGUGUAGUGACUAGACGGCACCCACCUAAGGCUAACGAUAUGGUGAAGGCAUAGUCCAGGGAGAGGCGAAAGUCACACAAACCGG [C82A A111G A120U A145U C150A U176A] is 0.00478. With GUGCCUUGCGCCGGGAAACCACGCAAGGGAUGGUGUCAAAUUCGGCGAAACCUAAGCGCCCGCCCGGGCGUAUGGCAACGCCGAGCCAAGCUUCGGCGCCUGCGCCGAUGCAGGUGUAGGGACUAGACGGCACCCACCUAAGGCAAACGAUAUGGUGAAGGCAUAGUCGAGGGAGUGGCGAAAGUCACACAAACCGG [A111C A120G C150A C169G], the reverse-splicing fitness came to 0.0242. GUGCCUUGCGCCGGGAAACCACGCAAGGGAUGGUGUCAAAUUCGGCGAAACCUAAGCGCCCGCCCGGGCGUAUGGCAACGCGGAGCCAAGCUUCGGCGCCUGCGCCGAUGUAGGUGUAGCGACUAGACGGCACCCACCUAAGGCUAACGCUAUGGUGAAGGCAUAGUCCAGGGAGGGGCGAAAGUCACACAAACCGG [C82G A111U A120C A145U U176G]: the reverse-splicing fitness was 0.00709. The figure for GUGCCUUGCGCCGGGAAACCACGCAAGGGAUGGUGUCAAAUUCGGCGAAACCUAAGCGCCCGCCCGGGCGUAUGGCAACGCCGAGCCAAGCUUCGGCGCCUGCGCCGAUGGAGGUGUAGCGACUAGACGGCACCCACCUAAGGCGAACGCUAUGGUGAAGGCAUAGUCAAGGGAGCGGCGAAAGUCACACAAACCGG [A111G A120C A145G C169A U176C] is 0.0197.

As to GUGCCUUGCGCCGGGAAACCACGCAAGGGAUGGUGUCAAAUUCGGCGAAACCUAAGCGCCCGCCCGGGCGUAUGGCAACGCGGAGCCAAGCUUCGGCGCCUGCGCCGAUGUAGGUGUAGCGACUAGACGGCACCCACCUAAGGCCAACGUUAUGGUGAAGGCAUAGUCCAGGGAGAGGCGAAAGUCACACAAACCGG [C82G A111U A120C A145C C150U U176A], the reverse-splicing fitness was determined as 0.0111. The figure for GUGCCUUGCGCCGGGAAACCACGCAAGGGAUGGUGUCAAAUUCGGCGAAACCUAAGCGCCCGCCCGGGCGUAUGGCAACGCUGAGCCAAGCUUCGGCGCCUGCGCCGAUGGAGGUGUAGGGACUAGACGGCACCCACCUAAGGCUAACGAUAUGGUGAAGGCAUAGUCAAGGGAGCGGCGAAAGUCACACAAACCGG [C82U A111G A120G A145U C150A C169A U176C] is 0.00962. The figure for GUGCCUUGCGCCGGGAAACCACGCAAGGGAUGGUGUCAAAUUCGGCGAAACCUAAGCGCCCGCCCGGGCGUAUGGCAACGCUGAGCCAAGCUUCGGCGCCUGCGCCGAUGGAGGUGUAGGGACUAGACGGCACCCACCUAAGGCAAACGAUAUGGUGAAGGCAUAGUCCAGGGAGAGGCGAAAGUCACACAAACCGG [C82U A111G A120G C150A U176A] is 0.00996. GUGCCUUGCGCCGGGAAACCACGCAAGGGAUGGUGUCAAAUUCGGCGAAACCUAAGCGCCCGCCCGGGCGUAUGGCAACGCGGAGCCAAGCUUCGGCGCCUGCGCCGAUGAAGGUGUAGCGACUAGACGGCACCCACCUAAGGCAAACGUUAUGGUGAAGGCAUAGUCGAGGGAGGGGCGAAAGUCACACAAACCGG [C82G A120C C150U C169G U176G]: the reverse-splicing fitness is 0.0048. As to GUGCCUUGCGCCGGGAAACCACGCAAGGGAUGGUGUCAAAUUCGGCGAAACCUAAGCGCCCGCCCGGGCGUAUGGCAACGCAGAGCCAAGCUUCGGCGCCUGCGCCGAUGGAGGUGUAGUGACUAGACGGCACCCACCUAAGGCCAACGGUAUGGUGAAGGCAUAGUCCAGGGAGGGGCGAAAGUCACACAAACCGG [C82A A111G A120U A145C C150G U176G], the reverse-splicing fitness was 0.00262. Turning to GUGCCUUGCGCCGGGAAACCACGCAAGGGAUGGUGUCAAAUUCGGCGAAACCUAAGCGCCCGCCCGGGCGUAUGGCAACGCCGAGCCAAGCUUCGGCGCCUGCGCCGAUGAAGGUGUAGCGACUAGACGGCACCCACCUAAGGCUAACGAUAUGGUGAAGGCAUAGUCGAGGGAGAGGCGAAAGUCACACAAACCGG [A120C A145U C150A C169G U176A], the reverse-splicing fitness came to 0.00974. The figure for GUGCCUUGCGCCGGGAAACCACGCAAGGGAUGGUGUCAAAUUCGGCGAAACCUAAGCGCCCGCCCGGGCGUAUGGCAACGCCGAGCCAAGCUUCGGCGCCUGCGCCGAUGUAGGUGUAGGGACUAGACGGCACCCACCUAAGGCAAACGCUAUGGUGAAGGCAUAGUCCAGGGAGGGGCGAAAGUCACACAAACCGG [A111U A120G U176G] is 0.00656; for GUGCCUUGCGCCGGGAAACCACGCAAGGGAUGGUGUCAAAUUCGGCGAAACCUAAGCGCCCGCCCGGGCGUAUGGCAACGCCGAGCCAAGCUUCGGCGCCUGCGCCGAUGCAGGUGUAGCGACUAGACGGCACCCACCUAAGGCGAACGUUAUGGUGAAGGCAUAGUCAAGGGAGCGGCGAAAGUCACACAAACCGG [A111C A120C A145G C150U C169A U176C] it is 0.0144; for GUGCCUUGCGCCGGGAAACCACGCAAGGGAUGGUGUCAAAUUCGGCGAAACCUAAGCGCCCGCCCGGGCGUAUGGCAACGCAGAGCCAAGCUUCGGCGCCUGCGCCGAUGUAGGUGUAGUGACUAGACGGCACCCACCUAAGGCAAACGAUAUGGUGAAGGCAUAGUCCAGGGAGUGGCGAAAGUCACACAAACCGG [C82A A111U A120U C150A] it is 0.00876.

As to GUGCCUUGCGCCGGGAAACCACGCAAGGGAUGGUGUCAAAUUCGGCGAAACCUAAGCGCCCGCCCGGGCGUAUGGCAACGCCGAGCCAAGCUUCGGCGCCUGCGCCGAUGCAGGUGUAGAGACUAGACGGCACCCACCUAAGGCCAACGGUAUGGUGAAGGCAUAGUCUAGGGAGCGGCGAAAGUCACACAAACCGG [A111C A145C C150G C169U U176C], the reverse-splicing fitness amounted to 0.0119.
